The values below come from US8809529B2, “Imidazo[1,2-α]pyrazine derivatives” (Promega Corporation, priority 2010, dated 2014).

Residue numbers refer to the chain shown, from its start. Names and notes keep the numbering of the source. Where two headings read alike, the source gives them in different places.

A short description of data set [1]: Exposure of L27V to 3 M urea. The class given is physicochemical. Conditions: 30 min at 25° C. How it is done:
A 0.31 mg/mL stock of purified L27V variant was diluted 100,000-fold into buffer (PBS+1 mM DTT+0.005% IGEPAL) and incubated with 3 M urea for 30 min at 25° C. and then mixed 1:1 (50 μL+50 μL) with an assay reagent containing 100 μM PBI-3939 (previously described). The reactions were read on a TECAN® INFINITE® F500 luminometer as described previously (for 100 min; 1 min read intervals) (FIG. 89).

A short description of data set [2]: Km of L27V reversion variants for native coelenterazine. The format is biochemical. The protocol: Relative activities <1 indicate the reversion is detrimental compared to the residue at that site in the L27V variant. Relative activities >1 indicate the reversion is favorable for activity compared to the residue at that site in the L27V variant. Some additional data on these mutants indicated the following: 166K, 54F, 54A and L27V were tested for thermal stability. The T1/2 60° C. for 166K, 54F, and 54A were 87, 74, and 33%, respectively, indicating these substitutions cause a reduction in thermal stability. […] This indicates higher substrate affinity for L27V, particularly for the position 54 substitutions.

The format of data set [3] is physicochemical, E. coli. Conditions: for ½ life: 50° C. How it is done: Lysates of E. coli containing 15C1, 9B8, 9F6, 8A3 or IV and E. coli expressing hRL (SEQ ID NO: 30 and 31) were prepared from induced cultures as described previously. Lysate samples were diluted 1:1000 with a buffer containing 10 mM HEPES pH 7.5 with 0.1% gelatin. Diluted lysate (100 μL) samples, in replicate 96-well plates, were incubated at 50° C. At different time points, plates were placed at −70° C. (minus seventy degrees Celsius). Prior to measuring the luminescence as described previously, each plate was thawed at room temperature, i.e., 22° C., for 10 min. Samples (10 μL of each thawed sample) were assayed using native coelenterazine as a substrate. Luminescence was measured immediately after addition of assay buffer for each time point plate. The half-life of the protein, which indicated protein stability, was calculated from the luminescence data for each time point using methods known in the art.

Data set [4] in a line: Brightness of purified OgLuc variant compared to firefly luciferase. The format is biochemical. The protocol:
The 9B8 OgLuc variant was overexpressed and purified as described in Example 33. Reactions between diluted enzyme and substrate were performed using the following 2× buffer/assay reagent: 100 mM MES pH 6.0, 1 mM CDTA, 150 mM KCl, 35 mM thiourea, 2 mM DTT, 0.25% TERGITOL® NP-9 (v/v), 0.025% MAZU® DF 204, 10 mg/mL […], and 20 μM PBI-3939. The final assay concentrations of purified enzyme and substrate were 0.5 pM and […], respectively. In parallel, reactions between diluted purified firefly luciferase (i.e., QUANTILUM® Recombinant Luciferase (Promega Corp.)) and luciferin were analyzed. The assay buffer/reagent for the firefly luciferase reaction was BRIGHT-GLO™, and the final assay concentrations were 0.5 pM enzyme and 500 μM luciferin. As the buffers/reagents for each reaction were known to provide “glow” kinetics, a 15 min time point was used to collect luminescence data.

B1: L27V: 9B8 opt+K33N variant with L27V, T39T, K43R, Y68D (protein)
chain: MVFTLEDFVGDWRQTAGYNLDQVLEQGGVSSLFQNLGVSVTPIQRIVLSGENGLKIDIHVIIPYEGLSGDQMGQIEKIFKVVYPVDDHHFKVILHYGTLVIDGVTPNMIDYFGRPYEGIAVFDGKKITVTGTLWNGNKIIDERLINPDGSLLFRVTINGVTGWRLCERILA
By Km is commonly meant the concentration of substrate that gives half-maximal velocity. Take B1: in data set [1], the “reduction of activity by 3M urea” value is “approximately 50%”. In addition, in data set [2], the Km came out at 16 µM.

B2: 9B8: IV variant with Q18L, F68Y, L72Q, M75K; in Tables 12, 22, 23, 26, 27 “9B8” stands for 9B8 opt (protein)
chain: B1 chain with V29L, N35K, R45K, D70Y
With B2, the “½ life” value was 5.8 h in data set [3] and 5.777 h in data set [3] (native coelenterazine as substrate). In data set [3] (4 h), the “% remaining at t = 4 hrs” value is 61%.

B3: 9B8 opt: codon optimized version of the 9B8 variant (protein)
chain: B1 chain with V29L, N35K, R45K, D70Y
On to B3, for which the “brightness relative to QUANTILUM Recombinant Luciferase with BRIGHT-GLO” value in data set [4] is reported as “approximately 8 fold”. Also, the luminescence in data set [4] (0.5 pM enzyme, 15 min, 9B8 opt with PBI-3939, QUANTILUM with BRIGHT-GLO) is listed as 19,200 RLU.
